± gives the uncertainty stated by the source.
Test: protein stability index of a GFP-peptide fusion (yeast GPS) (PSI 1-4); higher = more stable; sorted into four equal gates, so the index is relative within each strain
Procedure, shortened: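 Mid-log yeast cultures in leucine-free medium, carrying a pooled plasmid library, were sorted into four equal gates by their GFP/Cherry fluorescence ratio. Each plasmid expressed Cherry along with GFP fused upstream of a tiled 17-residue yeast protein peptide. Plasmids recovered from each gate were PCR-amplified and Illumina-sequenced, with reads assigned to strains by barcodes. The protein stability index was obtained by summing each gate's read frequency weighted by its gate number.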

Sequence | protein stability index (doa10∆) | protein stability index (pdr5∆) | protein stability index (san1∆) | protein stability index (ubr1∆)
NGRLNKCGVISPRFNVK [RPS22A] | 2.58 ± 0.29 | 2.85 ± 0.23 | 2.88 ± 0.2 | 3.22 ± 0.11
MKVEIDSFSGAKIYPGR [RPL24A] | 3.35 ± 0.072 | 3.45 ± 0.12 | 3.25 ± 0.08 | 3.22 ± 0.1
YDGDTVTFSPTGRLFQV [PRE5] | 2.96 ± 0.089 | 2.98 ± 0.12 | 2.94 ± 0.14 | 3.08 ± 0.061
KITDKEDLLHYIEEKHP [POP4] | 3.48 ± 0.1 | 3.3 ± 0.064 | 3.23 ± 0.057 | 3.24 ± 0.076
KDENNTANDQYSSILGN [YCG1] | 3.02 ± 0.047 | 3.2 ± 0.046 | 3.01 ± 0.032 | 3.08 ± 0.034
MRSTSILTEHLGYPPIS [MTW1] | 2.9 ± 0.076 | 2.74 ± 0.065 | 2.87 ± 0.062 | 3.06 ± 0.091
MKLKLMIVYYKDAISFI [YCS4] | 1.82 ± 0.053 | 1.49 ± 0.049 | 1.8 ± 0.091 | 1.73 ± 0.042
GLHKFVKGDLLQEAIDF [PRE10] | 2.93 ± 0.1 | 2.83 ± 0.079 | 3.09 ± 0.082 | 2.99 ± 0.053
GCNNLIKNISNRVGLTL [ARP9] | 3.28 ± 0.098 | 2.63 ± 0.066 | 3.33 ± 0.069 | 3.14 ± 0.057
NSMDISMFSGLDSTGFD [MED2] | 2.83 ± 0.059 | 3.06 ± 0.055 | 3.21 ± 0.041 | 2.83 ± 0.049
EPSYIFEYLATVMYQRR [PRE4] | 2.1 ± 0.081 | 2.46 ± 0.1 | 2.26 ± 0.091 | 2.12 ± 0.079
ITDKTIESIVNLAPKLR [GRR1] | 2.81 ± 0.081 | 2.27 ± 0.059 | 1.83 ± 0.086 | 2.76 ± 0.037
TDAGVLALKLELLDFLT [YJL039C/NUP192] | 2.84 ± 0.061 | 2.98 ± 0.078 | 2.96 ± 0.052 | 3.02 ± 0.046
IAACTGVPDDKWEQTYK [FAS1] | 1.63 ± 0.15 | 1.21 ± 0.23 |  | 1.31 ± 0.29
DEGHVLKLENLHVVSKS [SIN4] | 3.14 ± 0.11 | 2.65 ± 0.16 | 2.73 ± 0.19 | 3.02 ± 0.13
ILTTAVGLVSPSFMLKH [RPN1] | 1.96 ± 0.16 | 1.93 ± 0.12 | 1.3 ± 0.13 | 1.52 ± 0.077
PNVSDKYYLEESNVNDS [NUT1] | 3.2 ± 0.26 | 2.85 ± 0.15 | 3.21 ± 0.096 | 3.17 ± 0.14
PNPTPSMINSVSPTNVM [PGD1] | 2.21 ± 0.032 | 2.55 ± 0.037 | 2.32 ± 0.03 | 2.27 ± 0.028
KRYTSEGTRNRFSYSPP [YMR129W/POM152] | 3.09 ± 0.088 | 3.09 ± 0.063 | 2.92 ± 0.043 | 3.09 ± 0.043
PTVHNSTAAAPIAAPKK [PGD1] | 2.81 ± 0.065 | 3.08 ± 0.071 | 2.83 ± 0.052 | 3.072 ± 0.029
DDVISNAGTNDNSFNEL [MCD1] | 3.31 ± 0.15 | 3.37 ± 0.12 | 3.31 ± 0.06 | 3.44 ± 0.084
MSDPSSINGGIVVAMTG [PUP3] |  | 2.39 ± 0.21 |  | 
NTSVLMKLKLMIVYYKD [YCS4] | 1.56 ± 0.15 | 1.56 ± 0.12 | 1.32 ± 0.21 | 1.29 ± 0.11
IDLDNDEDDDEDVTDQE [DLS1] | 3.21 ± 0.12 | 2.89 ± 0.16 | 2.86 ± 0.083 | 3.17 ± 0.15
EDYAIVTKGGTVENPLR [PRP28] | 3.47 ± 0.16 | 2.98 ± 0.099 | 3.39 ± 0.055 | 3.44 ± 0.078
DIDAVNGAVGKREGKTR [ISW2] | 2.94 ± 0.13 | 3.47 ± 0.11 | 2.94 ± 0.1 | 3.4 ± 0.071

Sequence | protein stability index (doa10∆) | protein stability index (pdr5∆) | protein stability index (san1∆) | protein stability index (ubr1∆)
VIKLAKYPDYFPEWKKS [ARP9] | 3 ± 0.098 | 2.94 ± 0.091 | 2.82 ± 0.064 | 3.27 ± 0.13
EMDSVSKSMKFSRRFDC [CSN9] | 2.56 ± 0.11 | 2.6 ± 0.076 | 2.71 ± 0.054 | 2.85 ± 0.047
RALRRALTKFEASQVTE [RPL35A] |  | 2.56 ± 0.14 | 3.11 ± 0.097 | 3.19 ± 0.1
KLIKFETRNEDDVVVLT [FAS1] | 3.32 ± 0.17 | 2.93 ± 0.13 | 3.07 ± 0.063 | 3.12 ± 0.16
MGDNSQLDFTEFDEQYG [SNF2] | 3.31 ± 0.057 | 3.15 ± 0.067 | 3.31 ± 0.052 | 3.14 ± 0.045
SNQERCHDEGNDMLQRN [RRI1] | 3.33 ± 0.075 | 3.2 ± 0.11 | 3.35 ± 0.098 | 3.16 ± 0.076
LNGILADEMGLGKTIQT [SNF2] | 2.91 ± 0.11 | 2.67 ± 0.1 | 3.29 ± 0.066 | 2.56 ± 0.095
KTTRLLLIIRSLKNTDA [YJL039C/NUP192] | 1.51 ± 0.056 | 1.31 ± 0.053 | 1.19 ± 0.12 | 1.11 ± 0.059
KPTVILKLLKENIIQME [FAS1] | 1.38 ± 0.087 | 1.36 ± 0.12 | 1.24 ± 0.11 | 1.1 ± 0.11
TKFSKLIGRPPLLVPGM [FAS1] | 1.16 ± 0.071 | 2 ± 0.064 | 1.91 ± 0.078 | 1.65 ± 0.041
FEASCMEGQKLDDPVLN [YJR042W/NUP85] | 1.83 ± 0.088 | 1.76 ± 0.086 | 1.45 ± 0.21 | 1.53 ± 0.061
GRSWDGKEHIVAALVSL [ECM29] | 1.88 ± 0.052 | 2.1 ± 0.063 | 1.56 ± 0.082 | 1.65 ± 0.042
KDEYLAQLDGRIGVLQA [NSL1] | 2.08 ± 0.064 | 2.4 ± 0.046 | 2.41 ± 0.074 | 2.99 ± 0.046
YAVAEQCPVKSAEDQLY [QCR2] | 3.22 ± 0.13 |  | 3.15 ± 0.14 | 3.34 ± 0.21
VSALQMLKQHLFKYQGH [PUP1] | 2.55 ± 0.073 | 2.71 ± 0.076 | 2.65 ± 0.059 | 2.57 ± 0.05
QQQQQQQQRRQLTPQQQ [GAL11] | 2.764 ± 0.025 | 2.826 ± 0.025 | 2.877 ± 0.02 | 2.833 ± 0.022
TLVNKSTGLKNASDALK [RPS1B] | 2.87 ± 0.11 | 3.2 ± 0.11 | 3.4 ± 0.092 | 3.24 ± 0.075
TESNELIQKLQNSANNN [IRR1] | 2.93 ± 0.11 | 3.02 ± 0.082 | 3.24 ± 0.053 | 3.09 ± 0.17
KVSSASAAASESDVAKQ [RPL16B] | 2.93 ± 0.067 | 2.79 ± 0.055 | 2.04 ± 0.09 | 2.97 ± 0.065
KIEFPLPSEDSRAQILQ [RPT5] | 3.39 ± 0.15 | 3.18 ± 0.13 | 3.11 ± 0.09 | 3.51 ± 0.11
VLISKLSCEKITHYAVR [RRI1] | 1.45 ± 0.046 | 1.64 ± 0.051 | 1.66 ± 0.07 | 1.67 ± 0.039
SLFQLSKLGKNLQTVHF [GRR1] | 2.2 ± 0.047 | 2.22 ± 0.051 | 1.96 ± 0.06 | 2.43 ± 0.038
ININEFALPAGSPKSAT [CDC53] | 2.71 ± 0.067 | 2.76 ± 0.053 | 2.64 ± 0.07 | 2.73 ± 0.04
PINLPPQIAQLPLATQQ [SNF5] | 2.15 ± 0.071 | 2.49 ± 0.059 | 2.46 ± 0.089 | 2.27 ± 0.053
QKYWESMRIQILRRQAI [GAL11] | 1.34 ± 0.091 | 2.25 ± 0.087 | 1.65 ± 0.16 | 2.1 ± 0.058
NGDNLYGNDEEVLFYED [RPN4] | 3.07 ± 0.1 | 3.22 ± 0.12 | 3.1 ± 0.096 | 2.95 ± 0.074

Source: the supplement of paper PMC9732359
